The values below come from the DeepSol protein solubility set.

The series can be described thus: soluble on expression in E. coli; label from the status in PepcDB or PDB records.
Take “MSFMDKVKDTANSAYESVENTAVGAKDGVVGAFNTVGEKIGGAYDSTKQYASDKVSAAGDYASEAGKKVGDAEDSMIQGAYDAKDSAKESASNAGNKISNAFTSLKDSITGDNAHKTGEALNDNYESVKESASEAADRLKEPAQNTADNAKDLANQTGEEMSDAFESVKQLTSDTAENAKENAHDAADTAKSYKDKAGEKASGILDSFKAHASDAKDSVENKASDAYNSAKDKAGDAWDSTKDAAGDAKDKTKSFTEKVGDKISGAYDSVKEKASDVADSFKAHSTDSKDNVENKAADAYNTAKDKASDAWDKTKDKAGEAKDKMGDAWDTTKDKAGDAWDTTKDKAGDGKGKAGDAWDTTKDKASDAWDTTKDKAGEAKDKMGEAWDHTKDKAGEAKDKASDAADDAQGKSKSMTEKIGDSISGAWESTKDTAVSAKDKTAEAAGKVGDSISGAYDTVKEKASDIADSFKAHSTDSKDNVENKAADAYNSAKDKASDAWDKTKDKAGDAKDKAADAWDTTKDKAGDAWDSTKDHAADAKDKASDAAGDAKDKSKSLTEKAGDAISGAYDSVKEKASDIADSFKAHSTNSKDNVENKASDAYNSAKDKASDAWDKTKDKAGEAKDKAGDAWDNTKDKAGNAWDSTKDKASDAWDTTKDKASDAKESAGDAADSAKDKSKSITETIGDKISGAYDSVKEKASDVADSFKAHSSDAQDTVEVSHHKYFNVFSSFE”: the “soluble on expression in E. coli” value is listed as “soluble”.

Consider “MAHHHHHHMLSTTDGTTSTLSPERTAVIELHTSASYARDTVHRLREYCNSLEATRQQLRRRLSSVPNSHNVSAVALSRARSPSSLSHLHGQAPLPPLAAAAPTLSRPFFTSEYIDPEVDATLQDVDETTALETMIVLHEDGAGTITKRMIDGSQSCISSLAVHSSSPQSQRPAATTASLLAIHSPTPVAENGTSWARQYSPLALRRMKPQQLLSHYLRDTHNAMVIADEPRAHRHSSSLCTNASSSCCVPVVRLGKPMRSASASLWNASDVNMHFPHAVPLAPSLSESPPKQAPSTGRFVVPPATPLDESDAEQLPPQSLPPRPNNHKTTAGASVFVSLAGCTAPGQFAGLQTGVTSSTMGASSRVNSQRFAMKGLRESVSPKEHGTRSRSKSSRSSAGSEALVSGKQTTSSASAAAASAPLWDPTRHSLQSPSPVMLSTSTETSAASALVVSDRLGTPVTTSGCEVGVPGASNDSVHRPRPIGTSLITAVASTSFSPLSAPAPDSEEPQPPAETAVQPHIRSPLRRLHLEAHAVRCDHASSGNRRDLYTDSLHVSGSASPAPSTPRNSEENSGDRCKRSNTTAFLDEEKREASAVSTAGACRVSAQLPVLESDVVSPDGADSFHSKDAAVSPRRSSERTVNFLSPDQVEGSLLPQPQRPTSQRLISPSPPRGVAADSNEQNPRDGNTDLKAVSAESIPKDADIDSTSPRRHLVLPQHRSPVAPPRVVIISKDDESPSPARSSLSRSLHSLPSTLSDGHCDDASDDGDDEDGSLWYSEQF”, for which the “soluble on expression in E. coli” value was “not soluble”.

With “MKTVLVDWNLIPYAEAWQRQTEWFDTLVRAKAQGEAYENRIIMCEHPHVYTLGRSGKENNMLLNDDQLKAIQATLFHIDRGGDITYHGPGQLVCYPILNLEEFHLGLKEYVHLLEEAVIRVCASYGIEAGRLEKATGVWLEGSTPRARKICAIGVRSSHYVTMHGLALNVNTDLRYFSYIHPCGFIDKGVTSLRQELKHEVPMDEVKQRLECELGRLLNEKKQQIAQ”, the “soluble on expression in E. coli” value is “not soluble”.

Take “MHHHHHHSSGVDLGTENLYFQSMEKTELIQKAKLAEQAERYDDMATCMKAVTEQGAELSNEERNLLSVAYKNVVGGRRSAWRVISSIEQKTDTSDKKLQLIKDYREKVESELRSICTTVLELLDKYLIANATNPESKVFYLKMKGDYFRYLAEVACGDDRKQTIDNSQGAYQEAFDISKKEMQPTHPIRLGLALNFSVFYYEILNNPELACTLAKTAFDEAIAELDTLNEDSYKDSTLIMQLLRDNLTLWTSDSAG”: the “soluble on expression in E. coli” value was “soluble”.

Take “MSLEDGYKVEVGKNAYLPCSYTLPTSGTLVPMCWGKGFCPWSQCTNELLRTDERNVTYQKSSRYQLKGDLNKGDVSLIIKNVTLDDHGTYCCRIQFPGLMNDKKLELKLDIKAALVPR”: the “soluble on expression in E. coli” value is on record as “soluble”.

As to “MSYYHHHHHHLESTSLYKKAGLENLYFQGVRQYKIHTNLDGTDDKVWDVTNGKVRFYQPSNLGLQSTNNIWQSNGIGVMGTRSITQPQIEFKLETFGESLEENYQLMKDFVNDILSKKFVTLEYQTEIFQVYADLALADVTKTEGYGKNGTFSEKITFDIITKWYTYENLTFDKIQNGKVIAGMSKIYGGTAPGNYKYIKGTSYTYYGESDIDRLSRWDIKEEIFSFMGILYPKLPKTPAGVRFLDDIGNEYTAIVFKTEQVQDYILINTDVNDETYQGWKGTTALNLFPVMDFERYRTRIIEKGQMELINLSKAEFKIKRKADFV”, the “soluble on expression in E. coli” value was “soluble”.

For the sequence “MAHHHHHHMADDILQCVHKEFKYVLISSDINDQIKELTFSGSERKFQGVLASYFRRIIFDEKGKNELKEVIKEKLKVSKENDNGGTERAGAEQEGDQNGQKSGQPNGAELNASAITPDLINNAVESSQTYQIIPLTIPTEKTNFFAVNCYIDDIGRIKKLPYNSRASRICSTEIYGDAFLSKTYDNEDFRRCDFTISEYEQFLQNPPKAENRYPPSDTMCVSG”, the “soluble on expression in E. coli” value was “soluble”.

For “GPGSMALVADVPPPTATSMAKLFQESSFDPVTTFEAVWLPPRVPAAPPTAGASEPVPFAAVVDVLADISATGSRLECLKQLTFLLLAVIERCPEDLVPVMYLVINKHAPQHEGVELGIGDAVLVKAVAECCGMTETRAKEEYRQSGDLAEIAQMHKQKQGTLMKPKPLSARSVFKTYKEIAMMSGRDVMRRRSDLIKGLLRDAQGPEVNLIVRGLQQKMRIGLAEPSALAAVGYAFALHFLGGAQMHKMDEVQLQTLLNTGADSLARIFYEVPSLDVVLSAVLANGFMTLVPGSSIAKQYAKDLSIRPGLPVKPQLAYPTSSITVILDRLQGKKFTSEYKYDGERAQIHYDKDKGFHIFSRNSETHTGKYPDVISMLPKVFDPVEVQSFILDSEVVAVHSETGALQAFQVLQHRGRKNIAEEDVSIPVCVFVFDILYFNGEPQLNKTLQQRRELLWRCIHPLPAKLSFATHLDSEKVEDVQTFLERSIADGCEGLMVKTLEEEANYTPAKRSHYWLKLKKDYMDGVTDTLDLVPIAAFYGKGKRTGVFGGFLLACYDPKADEYQSICKIGTGFQDEELEKLTQSLKPFVVDEKPRYYRAGGEEPDVWLTEAQVWEVKAADLSVSPVHQAAVGLVDPDKGIALRFPRYLRQREDKKPADATNARQVADMYKAQSLAAEHDANGDAE”, the “soluble on expression in E. coli” value is reported as “not soluble”.

In the case of “MCESKIDRNRIWIVGTNATYPPFEYVDAQGEVVGFDIDLAKAISEKLGKQLEVREFAFDALILNLKKHRIDAILAGMSITPSRQKEIALLPYYGDEVQELMVVSKRSLETPVLPLTQHSSVAVQTGTFQEHYLLSQPGICVRSFDSTLEVIMEVRYGKSPVAVLEPSVGRVVLKDFPNLVATRLELPPECWVLGCGLGVAKDRPEEIQTIQQAITDLKSEGVIQSLTKKWQLSEVAYELEHHHHHH”, the “soluble on expression in E. coli” value is “soluble”.

For the sequence “MGSDKIHHHHHHMKIAQVCPRFYPHIGGVETHVYEIASRIAKKFDVEVLTTDPGGKLPKVEEIDGLTVRRFKSLAPSEAYYFSPELYDYLKKNSSDYDVVHAHNYHAFPALFAALTKGKNKLIFTPHYHGSGHSFFRNVLHKPYKIFGRKIFKRADAIVCVSNYEKNLVLKNFKVAEDRTYVIPNGINLDEFKDIEKIKRNKESWKKTILYVGRVEKYKGLDYVVKSLKHLPDNFTLEVVGKGSYKSKIVEMAKKLDVIDRIRFYQDLSRKELIDRYAKADVLVLLSKHEAYGIVVAEALAAKTPCIVANTSALSEWIDNKNVFGIDYPINVSELARLIERVSNVKAGDMKLLDWDDVNERLIRIYSAKI”, the “soluble on expression in E. coli” value was “not soluble”.
